For four molecules, IC50 results are on record in patent US20210246451, “APTAMER FOR ADAMTS5 AND USE FOR APTAMER FOR ADAMTS5” (RIBOMIC INC., published 2021).

What all share (conditions): tags: R&D Systems
For data set [1], the target named is T1, ADAMTS5 (UniProt Q9UNA0 Q9UNA0:262-622).
T1 sequence: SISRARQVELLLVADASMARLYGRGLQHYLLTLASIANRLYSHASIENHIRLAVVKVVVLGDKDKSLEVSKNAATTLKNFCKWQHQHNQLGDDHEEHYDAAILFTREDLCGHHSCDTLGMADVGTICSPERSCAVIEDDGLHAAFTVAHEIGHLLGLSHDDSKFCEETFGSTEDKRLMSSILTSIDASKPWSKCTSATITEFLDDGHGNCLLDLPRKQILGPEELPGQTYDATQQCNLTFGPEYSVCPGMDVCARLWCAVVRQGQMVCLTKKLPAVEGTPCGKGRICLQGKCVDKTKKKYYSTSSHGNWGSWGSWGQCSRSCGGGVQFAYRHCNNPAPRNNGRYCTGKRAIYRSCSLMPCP
The data set is described as follows: inhibition; method 2 ELISA, 0.2 nM enzyme; method 1 77.5%. The procedure:
(§1) The substrate cleavage efficiency of ADAMTS5 under these reaction conditions was 80-100%. The inhibition rate of the test substance was calculated using the following equation.
(§2) On the other hand, the aptamers having the sequences shown by the sequences of SEQ ID NOs: 11(34)-11(35) and SEQ ID NO: 15 were evaluated by the following method (evaluation method 2). The cleavage reaction of the substrate (aggrecan G1-IGD-G2) by ADAMTS5 was performed in the same manner as in Example 1 except the following points. The differences are that the final concentrations of ADAMTS5 and the substrate were respectively 0.2 nM and 400 nM (48 μg/mL), and that the enzyme reaction time was 30 min. […] The cleaved substrate was quantified by a sandwich ELISA method using two kinds of anti-aggrecan antibodies. […] Using this, the amount of cleaved substrate can be quantified. […] The inhibition rate of the test substance was calculated using the following equation.
(§3) The aptamers having the sequences shown in SEQ ID NOs: 28(l)-28(18) (SEQ ID NO: 28 lineage) and SEQ ID NOs: 29(1)-29(3) (SEQ ID NO: 29 lineage) were all produced by chemical synthesis. Whether these aptamers inhibit the enzyme activity of ADAMTS5 was evaluated by a method similar to that in Example 1 and Example 5. In the Table, “n.d.” means not determined. […] “n.d.” means not determined.
Background: ELISA stands for enzyme-linked immunosorbent assay.

The target in data set [2] is T1, ADAMTS5. Put plainly: inhibition; method 2 ELISA; method 1 92.9%. The procedure: The heat-treated reaction solution was electrophoresed by 7.5% SDS-PAGE and stained with SYPRO Orange (manufactured by Sigma-Aldrich). The staining was performed according to the manual of Sigma-Aldrich and detected using STORM840 manufactured by GE Healthcare. […] The amount of uncleaved substrate in each reaction solution was quantified from the band intensity and the standard curve. The substrate cleavage efficiency of ADAMTS5 under these reaction conditions was 80-100%. The inhibition rate of the test substance was calculated using the following equation.
On the other hand, the aptamers having the sequences shown by the sequences of SEQ ID NOs: 11(34)-11(35) and SEQ ID NO: 15 were evaluated by the following method (evaluation method 2). […] The cleaved substrate was quantified by a sandwich ELISA method using two kinds of anti-aggrecan antibodies. […] Using this, the amount of cleaved substrate can be quantified. […] The inhibition rate of the test substance was calculated using the following equation.
The aptamers having the sequences shown in SEQ ID NOs: 28(l)-28(18) (SEQ ID NO: 28 lineage) and SEQ ID NOs: 29(1)-29(3) (SEQ ID NO: 29 lineage) were all produced by chemical synthesis. Whether these aptamers inhibit the enzyme activity of ADAMTS5 was evaluated by a method similar to that in Example 1 and Example 5.

In data set [3] the target is T1, ADAMTS5. Put plainly: inhibition; method 2 ELISA; 98.1% at 2 nM. The procedure: as §1, §2, §3
For data set [4], the target named is T1, ADAMTS5. The data set is described as follows: inhibition; method 2 ELISA; 95.9% at 2 nM. The protocol:
as §1, §2, §3

Where a chain is given by its changes, count along the chain named.

B1: 28(3) (ssRNA)
RNA: CGUAGGGGCCUCCACAGCGUAAGCUUGGACUUAAACCACG
modifications: as SEQ 28 plus 2'-OMe at U31
The term IC50 denotes the concentration needed to halve the response being measured. Read a low IC50 as inhibition by little substance. B1: the IC50 with ADAMTS5 [1] amounted to 108 pM.

B2: 29(1) (ssRNA)
RNA: B1 RNA with G19A, A21U, A22C, U31A, U32C
modifications: as SEQ 29 plus 2'-OMe at A31; 3' idT
Take B2: in the data set with ADAMTS5 [2], the midpoint of inhibition, the IC50, lay at 170 pM.

B3: 28(15) (ssRNA)
RNA: B1 RNA
modifications: as SEQ 28 plus 2'-OMe at 20-22,31; 3' idT
B3: the IC50 with ADAMTS5 [3] turned out to be 84 pM.

B4: 28(18) (ssRNA)
RNA: B1 RNA
modifications: as SEQ 28 plus 2'-OMe at 20-22,31; 5' 40 kDa branched PEG; 3' idT
For the molecule B4, the IC50 with ADAMTS5 [4] was determined as 29 pM.
